Series [1] concerns the target TtCoAT (TT_C1083, CoA transferase from Thermus thermophilus HB27) with C-terminal (His)6-tag (Thermus thermophilus HB27) (UniProt Q72IP9). Briefly: cryo-EM structure.
The target is the same in series [2]. Nature of the series: SEC. (SEC sorts molecules by how far they enter the pores of the column.)
Series [3] shares this target. Nature of the series: cryo-EM structure. The source holds these as a separate data set.
Series [4] deals with the molecule itself. Nature of the series: cryo-EM structure.

By stoichiometry N is commonly meant the number of molecules, sites or subunits per partner or assembly. On to “TtCoAT (TT_C1083, CoA transferase from Thermus thermophilus HB27) with C-terminal (His)6-tag (from UniProt Q72IP9 1-444) (enzyme)”, for which the stoichiometry N in series [1] was determined as 2; in series [2], 4; in series [3], 2.

B1: ADLP (TT_C1082, alanine dehydrogenase-like protein from Thermus thermophilus HB27) with N-terminal Strep-tag (natural protein)
chain: MEFGVPKERSGGEIPERRVPLTPQGVRELVASGHRVYVERGAGEGAGFPDEAYEEAGARLVGREEAFGRPQVVLKVARPTLEEVGLMRKNAVLMAFLHLAVAESPLVEAMAQKGLTAIGYELVGEEGRRPVLKAMSEIAGRMAPQLAGRLLEAPQGPGILLSGLVGIPPADVVVLGAGVLGRAAARAFLGAGASVHLLDRALPPLEEAAREAPGAITALVTQDRLERYVAFADVLVGAVAVPGERTPLLLTRGLLARMRPGSVLLDFSIDQGGVSETSRPGVYQEMGVTHFCLPNVPALVPRTASHALTATLLPYLLRIQEDPLALPGLRQGAYLLFGEKGGHLE
In the case of B1, the “stoichiometry N” value in series [4] worked out at 6.

For the origin of these results see article doi:10.1101/2025.10.31.685773 (bioRxiv, 2025).
